B1: Protein BRASSINAZOLE-RESISTANT 1 (Arabidopsis thaliana (Mouse-ear cress)), Q8S307 (parent)
chain: MTSDGATSTSAAAAAAAAAAARRKPSWRERENNRRRERRRRAVAAKIYTGLRAQGDYNLPKHCDNNEVLKALCVEAGWVVEEDGTTYRKGCKPLPGEIAGTSSRVTPYSSQNQSPLSSAFQSPIPSYQVSPSSSSFPSPSRGEPNNNMSSTFFPFLRNGGIPSSLPSLRISNSCPVTPPVSSPTSKNPKPLPNWESIAKQSMAIAKQSMASFNYPFYAVSAPASPTHRHQFHTPATIPECDESDSSTVDSGHWISFQKFAQQQPFSASMVPTSPTFNLVKPAPQQMSPNTAAFQEIGQSSEFKFENSQVKPWEGERIHDVGMEDLELTLGNGKARG
partner: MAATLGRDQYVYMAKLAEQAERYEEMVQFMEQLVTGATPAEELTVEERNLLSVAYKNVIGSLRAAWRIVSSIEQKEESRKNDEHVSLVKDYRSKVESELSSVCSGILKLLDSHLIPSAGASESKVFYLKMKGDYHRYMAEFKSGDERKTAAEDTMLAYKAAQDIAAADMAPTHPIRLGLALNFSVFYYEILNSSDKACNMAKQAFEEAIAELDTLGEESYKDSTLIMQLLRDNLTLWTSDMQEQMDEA

Variants of: B1
Details: with 14336_arath GRF6, P48349

| effect of a mutation on the interaction | Variant |
| --- | --- |
| decreasing interaction | MTSDGATSTSAAAAAAAAAAARRKPSWRERENNRRRERRRRAVAAKIYTGLRAQGDYNLPKHCDNNEVLKALCVEAGWVVEEDGTTYRKGCKPLPGEIAGTSSRVTPYSSQNQSPLSSAFQSPIPSYQVSPSSSSFPSPSRGEPNNNMSSTFFPFLRNGGIPSSLPSLRISNACPVTPPVSSPTSKNPKPLPNWESIAKQSMAIAKQSMASFNYPFYAVSAPASPTHRHQFHTPATIPECDESDSSTVDSGHWISFQKFAQQQPFSASMVPTSPTFNLVKPAPQQMSPNTAAFQEIGQSSEFKFENSQVKPWEGERIHDVGMEDLELTLGNGKARG [S173A] |
